These are literature values, as cited in PMC12043044.

The term Kd denotes a measure of binding affinity in units of concentration.

The target in the data set is Ubiquitin (UniProt P0CG48).

Sla1 SH3-3, sequence (P32790 350-418): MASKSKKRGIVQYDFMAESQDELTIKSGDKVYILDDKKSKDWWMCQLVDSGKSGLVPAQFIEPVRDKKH

Consider Sla1 SH3-3 (from UniProt P32790), for which the dissociation constant (Kd) is 40 µM.
